B1: DF1.1 variant HCDR3-G8R (antibody, V domains shown)
VH: QVQLVQSGAEVKKPGSSVKVSCKTSGGTFNNVAINWVRQAPGQGLEWMGGIIPGLDTPNYAQKFQGRVTITADKSTTSTYLELSSLRSDDTAVYYCAREMEVSRRWRPTEAFEIWGQGTMVTVSS
VL: ETTLTQSPGTLSLSPGERATLSCRASQTISNNFVAWYQQKPGQAPRLLIYGASTRATGIPDRFSGSGSGTDFTLTISSLEPEDFAVYYCQQYGSSPYTFGQGTKVDIK
B2: DF1.1 variant HCDR3-S7R (antibody, V domains shown)
VH: QVQLVQSGAEVKKPGSSVKVSCKTSGGTFNNVAINWVRQAPGQGLEWMGGIIPGLDTPNYAQKFQGRVTITADKSTTSTYLELSSLRSDDTAVYYCAREMEVRGRWRPTEAFEIWGQGTMVTVSS
VL: ETTLTQSPGTLSLSPGERATLSCRASQTISNNFVAWYQQKPGQAPRLLIYGASTRATGIPDRFSGSGSGTDFTLTISSLEPEDFAVYYCQQYGSSPYTFGQGTKVDIK
B3: DF1.1 variant LCDR3-P7A (antibody, V domains shown)
VH: QVQLVQSGAEVKKPGSSVKVSCKTSGGTFNNVAINWVRQAPGQGLEWMGGIIPGLDTPNYAQKFQGRVTITADKSTTSTYLELSSLRSDDTAVYYCAREMEVSGRWRPTEAFEIWGQGTMVTVSS
VL: ETTLTQSPGTLSLSPGERATLSCRASQTISNNFVAWYQQKPGQAPRLLIYGASTRATGIPDRFSGSGSGTDFTLTISSLEPEDFAVYYCQQYGSSAYTFGQGTKVDIK
B4: DF1.1 variant LCDR3-Q1A (antibody, V domains shown)
VH: QVQLVQSGAEVKKPGSSVKVSCKTSGGTFNNVAINWVRQAPGQGLEWMGGIIPGLDTPNYAQKFQGRVTITADKSTTSTYLELSSLRSDDTAVYYCAREMEVSGRWRPTEAFEIWGQGTMVTVSS
VL: ETTLTQSPGTLSLSPGERATLSCRASQTISNNFVAWYQQKPGQAPRLLIYGASTRATGIPDRFSGSGSGTDFTLTISSLEPEDFAVYYCAQYGSSPYTFGQGTKVDIK
B5: DF1.1 variant LCDR3-G4R (antibody, V domains shown)
VH: QVQLVQSGAEVKKPGSSVKVSCKTSGGTFNNVAINWVRQAPGQGLEWMGGIIPGLDTPNYAQKFQGRVTITADKSTTSTYLELSSLRSDDTAVYYCAREMEVSGRWRPTEAFEIWGQGTMVTVSS
VL: ETTLTQSPGTLSLSPGERATLSCRASQTISNNFVAWYQQKPGQAPRLLIYGASTRATGIPDRFSGSGSGTDFTLTISSLEPEDFAVYYCQQYRSSPYTFGQGTKVDIK
B6: DF1.1 variant LCDR3-T9R (antibody, V domains shown)
VH: QVQLVQSGAEVKKPGSSVKVSCKTSGGTFNNVAINWVRQAPGQGLEWMGGIIPGLDTPNYAQKFQGRVTITADKSTTSTYLELSSLRSDDTAVYYCAREMEVSGRWRPTEAFEIWGQGTMVTVSS
VL: ETTLTQSPGTLSLSPGERATLSCRASQTISNNFVAWYQQKPGQAPRLLIYGASTRATGIPDRFSGSGSGTDFTLTISSLEPEDFAVYYCQQYGSSPYRFGQGTKVDIK
B7: DF1.1 variant HCDR3-R11A (antibody, V domains shown)
VH: QVQLVQSGAEVKKPGSSVKVSCKTSGGTFNNVAINWVRQAPGQGLEWMGGIIPGLDTPNYAQKFQGRVTITADKSTTSTYLELSSLRSDDTAVYYCAREMEVSGRWAPTEAFEIWGQGTMVTVSS
VL: ETTLTQSPGTLSLSPGERATLSCRASQTISNNFVAWYQQKPGQAPRLLIYGASTRATGIPDRFSGSGSGTDFTLTISSLEPEDFAVYYCQQYGSSPYTFGQGTKVDIK
B8: DF1.1 variant HCDR3-R9A (antibody, V domains shown)
VH: QVQLVQSGAEVKKPGSSVKVSCKTSGGTFNNVAINWVRQAPGQGLEWMGGIIPGLDTPNYAQKFQGRVTITADKSTTSTYLELSSLRSDDTAVYYCAREMEVSGAWRPTEAFEIWGQGTMVTVSS
VL: ETTLTQSPGTLSLSPGERATLSCRASQTISNNFVAWYQQKPGQAPRLLIYGASTRATGIPDRFSGSGSGTDFTLTISSLEPEDFAVYYCQQYGSSPYTFGQGTKVDIK
B9: DF1.1 variant HCDR3-E5A (antibody, V domains shown)
VH: QVQLVQSGAEVKKPGSSVKVSCKTSGGTFNNVAINWVRQAPGQGLEWMGGIIPGLDTPNYAQKFQGRVTITADKSTTSTYLELSSLRSDDTAVYYCAREMAVSGRWRPTEAFEIWGQGTMVTVSS
VL: ETTLTQSPGTLSLSPGERATLSCRASQTISNNFVAWYQQKPGQAPRLLIYGASTRATGIPDRFSGSGSGTDFTLTISSLEPEDFAVYYCQQYGSSPYTFGQGTKVDIK
B10: DF1.1 variant HCDR3-P12A/LCDR3-S6R (antibody, V domains shown)
VH: QVQLVQSGAEVKKPGSSVKVSCKTSGGTFNNVAINWVRQAPGQGLEWMGGIIPGLDTPNYAQKFQGRVTITADKSTTSTYLELSSLRSDDTAVYYCAREMEVSGRWRATEAFEIWGQGTMVTVSS
VL: ETTLTQSPGTLSLSPGERATLSCRASQTISNNFVAWYQQKPGQAPRLLIYGASTRATGIPDRFSGSGSGTDFTLTISSLEPEDFAVYYCQQYGSRPYTFGQGTKVDIK
B11: DF1.1 variant HCDR3-P12A/LCDR3-Y3A (antibody, V domains shown)
VH: QVQLVQSGAEVKKPGSSVKVSCKTSGGTFNNVAINWVRQAPGQGLEWMGGIIPGLDTPNYAQKFQGRVTITADKSTTSTYLELSSLRSDDTAVYYCAREMEVSGRWRATEAFEIWGQGTMVTVSS
VL: ETTLTQSPGTLSLSPGERATLSCRASQTISNNFVAWYQQKPGQAPRLLIYGASTRATGIPDRFSGSGSGTDFTLTISSLEPEDFAVYYCQQAGSSPYTFGQGTKVDIK
B12: DF1.1 variant HCDR3-W10A/LCDR3-Y3A (antibody, V domains shown)
VH: QVQLVQSGAEVKKPGSSVKVSCKTSGGTFNNVAINWVRQAPGQGLEWMGGIIPGLDTPNYAQKFQGRVTITADKSTTSTYLELSSLRSDDTAVYYCAREMEVSGRARPTEAFEIWGQGTMVTVSS
VL: ETTLTQSPGTLSLSPGERATLSCRASQTISNNFVAWYQQKPGQAPRLLIYGASTRATGIPDRFSGSGSGTDFTLTISSLEPEDFAVYYCQQAGSSPYTFGQGTKVDIK
B13: DF1.1 variant HCDR3-P12A/LCDR3-Y8A (antibody, V domains shown)
VH: QVQLVQSGAEVKKPGSSVKVSCKTSGGTFNNVAINWVRQAPGQGLEWMGGIIPGLDTPNYAQKFQGRVTITADKSTTSTYLELSSLRSDDTAVYYCAREMEVSGRWRATEAFEIWGQGTMVTVSS
VL: ETTLTQSPGTLSLSPGERATLSCRASQTISNNFVAWYQQKPGQAPRLLIYGASTRATGIPDRFSGSGSGTDFTLTISSLEPEDFAVYYCQQYGSSPATFGQGTKVDIK
B14: DF1.1 variant HCDR3-W10A/LCDR3-Y8A (antibody, V domains shown)
VH: QVQLVQSGAEVKKPGSSVKVSCKTSGGTFNNVAINWVRQAPGQGLEWMGGIIPGLDTPNYAQKFQGRVTITADKSTTSTYLELSSLRSDDTAVYYCAREMEVSGRARPTEAFEIWGQGTMVTVSS
VL: ETTLTQSPGTLSLSPGERATLSCRASQTISNNFVAWYQQKPGQAPRLLIYGASTRATGIPDRFSGSGSGTDFTLTISSLEPEDFAVYYCQQYGSSPATFGQGTKVDIK
B15: DF1.1 variant HCDR3-A15R/LCDR3-Y3A (antibody, V domains shown)
VH: QVQLVQSGAEVKKPGSSVKVSCKTSGGTFNNVAINWVRQAPGQGLEWMGGIIPGLDTPNYAQKFQGRVTITADKSTTSTYLELSSLRSDDTAVYYCAREMEVSGRWRPTERFEIWGQGTMVTVSS
VL: ETTLTQSPGTLSLSPGERATLSCRASQTISNNFVAWYQQKPGQAPRLLIYGASTRATGIPDRFSGSGSGTDFTLTISSLEPEDFAVYYCQQAGSSPYTFGQGTKVDIK

One test has as its target T1, S. aureus alpha-toxin (Staphylococcus aureus, UniProt P09616).
The term Kd denotes the constant that tells how readily two partners part at equilibrium. A high value points to a looser complex. Turning to B1, the Kd is 0.4 nM. Same read-out and setting: next, B2: 0.3 nM; B3: below 0.14 nM. Still for that read-out and setting: to B4 belongs below 0.14 nM. Same read-out and setting: to B5 belongs below 0.14 nM; to B6, below 0.14 nM. In turn, B7 had a Kd of 0.8 nM. Same read-out and setting: to B8 belongs 0.4 nM; to B9, 0.4 nM.

The target in a further test is T1, S. aureus alpha-toxin. This is another data set of the same source.
Take B10: the Kd is 330 nM.

For the molecule B11, the Kd came to 190 nM.

For the molecule B12, binding was put at a Kd of 440 nM. The same measure, in the same setting: to B13 belongs 37 nM. On the same count and under the same terms, to B14 belongs 440 nM. On the same count and under the same terms, to B15 belongs 280 nM.

These data come from patent US20130164308A1 (RINAT NEUROSCIENCE, published 2013).
